Biological target: T1, His-LEC1 (LEAFY COTYLEDON1) (Arabidopsis, UniProt Q9SFD8 1-238)
T1 construct: LEAFY COTYLEDON1 (LEC1), NF-Y transcription factor, Arabidopsis, AT1G21970; Vector pQE30; source: E. coli Rosetta DE3, purified (Ni-nitrilotriacetic acid agarose beads)
T1 sequence (looked up): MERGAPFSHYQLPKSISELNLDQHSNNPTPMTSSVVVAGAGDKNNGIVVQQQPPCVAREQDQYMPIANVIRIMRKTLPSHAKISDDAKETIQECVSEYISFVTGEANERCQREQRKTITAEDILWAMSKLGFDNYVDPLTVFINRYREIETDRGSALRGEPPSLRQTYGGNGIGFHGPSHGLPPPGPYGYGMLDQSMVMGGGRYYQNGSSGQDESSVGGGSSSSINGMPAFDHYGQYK
Experiment: pull-down; 2 μg of His-LEC1 or His-GFP incubated with immobilized GST or GST fusion proteins; 50 mM Tris-HCl pH 8.0, 100 mM NaCl, 1 mM EDTA; 4°C, 4 h; detected with an anti-His antibody
Details: both partners purified

B1: GST-TCL2 (TRICHOMELESS2) (natural protein, Arabidopsis, UniProt B3H4X8 1-100, looked up)
chain: MDNTNRLRHLRSRKQSKFTLGDTAEVNSVKWEFINMTEQEEDLIFRMHRLVGDRWDLIAGRVVGREAKDIERYWIMRNCDHCSHKRRRVHKFYRFSISPP
notes: TCL2, single-repeat R3 MYB protein, Arabidopsis, AT2G30424; Vector pGEX-4T-1; source: E. coli Rosetta DE3, purified (glutathione sepharose beads)
  binding result: binds

Source: PMC4630568, “Arabidopsis LEAFY COTYLEDON1 controls cell fate determination during post-embryonic development” (Frontiers in Plant Science, 2015)
